Biological target: T1, 肾组织切片中的PLA2R1蛋白 (human, UniProt Q13018 21-1463)
T1 construct: whole, on cells
Test: immunohistochemistry on FFPE kidney tissue sections, DAB

T1 sequence (Q13018 21-1463): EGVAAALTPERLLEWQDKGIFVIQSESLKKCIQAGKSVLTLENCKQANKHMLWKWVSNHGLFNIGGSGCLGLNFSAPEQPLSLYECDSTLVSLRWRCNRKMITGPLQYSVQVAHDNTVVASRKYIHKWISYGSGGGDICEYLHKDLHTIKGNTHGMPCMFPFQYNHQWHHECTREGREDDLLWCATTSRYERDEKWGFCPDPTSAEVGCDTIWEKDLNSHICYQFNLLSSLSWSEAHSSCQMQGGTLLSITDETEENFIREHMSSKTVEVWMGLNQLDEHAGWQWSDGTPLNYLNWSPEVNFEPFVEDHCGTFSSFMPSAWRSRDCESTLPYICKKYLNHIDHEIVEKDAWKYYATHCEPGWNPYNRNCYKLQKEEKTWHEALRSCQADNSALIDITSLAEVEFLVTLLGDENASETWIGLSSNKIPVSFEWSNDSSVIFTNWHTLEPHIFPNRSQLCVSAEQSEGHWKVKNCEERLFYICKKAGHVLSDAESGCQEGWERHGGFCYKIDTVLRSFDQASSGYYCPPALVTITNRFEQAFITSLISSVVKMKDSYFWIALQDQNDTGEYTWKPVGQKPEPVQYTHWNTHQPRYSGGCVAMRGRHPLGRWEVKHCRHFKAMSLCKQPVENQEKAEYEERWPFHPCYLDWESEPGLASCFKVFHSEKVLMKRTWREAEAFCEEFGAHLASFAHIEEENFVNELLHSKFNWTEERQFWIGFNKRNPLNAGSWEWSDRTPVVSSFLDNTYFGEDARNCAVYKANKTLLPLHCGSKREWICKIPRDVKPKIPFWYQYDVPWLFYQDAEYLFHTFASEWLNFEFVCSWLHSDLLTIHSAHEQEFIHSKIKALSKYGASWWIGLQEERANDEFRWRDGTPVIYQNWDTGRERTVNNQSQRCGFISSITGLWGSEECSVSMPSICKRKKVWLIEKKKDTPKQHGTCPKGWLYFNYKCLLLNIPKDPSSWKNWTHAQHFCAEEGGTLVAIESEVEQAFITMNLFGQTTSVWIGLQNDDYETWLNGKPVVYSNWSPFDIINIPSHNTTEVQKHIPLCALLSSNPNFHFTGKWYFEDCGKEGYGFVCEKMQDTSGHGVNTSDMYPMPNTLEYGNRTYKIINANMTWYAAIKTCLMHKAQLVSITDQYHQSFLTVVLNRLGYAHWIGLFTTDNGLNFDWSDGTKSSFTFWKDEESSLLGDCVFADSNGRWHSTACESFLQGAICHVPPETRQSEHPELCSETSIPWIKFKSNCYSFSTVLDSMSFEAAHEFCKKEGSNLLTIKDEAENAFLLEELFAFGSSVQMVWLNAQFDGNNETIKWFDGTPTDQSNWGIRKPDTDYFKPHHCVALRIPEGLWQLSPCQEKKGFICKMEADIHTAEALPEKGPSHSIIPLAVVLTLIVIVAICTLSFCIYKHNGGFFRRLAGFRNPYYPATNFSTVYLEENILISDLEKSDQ

B1: 54D11抗PLA2R重组兔单克隆抗体 (antibody, V domains shown)
VH: QSVEESGGRLVTPGTPLTLTCTVSGIDLSSHGMGWVRQAPGKGLEWIGYINTGGSAYYASWAKGRFTISRTSTTVDLKMTSLTTEDTATYFCARGDPDYTSGFPIWGPGTLVTVSS
VL: AFEMTQTPASVEVAVGGTVTIKCQASESISSWLAWYQQKPGQPPKLLIYRASTLASGVPSRFSGSGSGTQFTLTISGVECADAATYYCQQGYSSHNIDNIFGGGTEVVVR
notes: also called 54D11抗PLA2R单克隆抗体; 54D11克隆的PLA2R重组兔单克隆抗体
  binding result: binds
